According to article PMC2852523 (The Journal of Membrane Biology, 2010):

T1: Potassium channel KcsA, wild-type (Streptomyces lividans), P0A334
T1 chain: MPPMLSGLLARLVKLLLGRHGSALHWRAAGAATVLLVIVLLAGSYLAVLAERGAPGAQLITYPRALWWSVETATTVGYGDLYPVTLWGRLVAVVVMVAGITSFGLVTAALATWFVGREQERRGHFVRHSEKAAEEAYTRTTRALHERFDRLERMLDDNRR

B1: Potassium channel KcsA, wild-type, P0A334 1-160 (natural protein)
chain: MPPMLSGLLARLVKLLLGRHGSALHWRAAGAATVLLVIVLLAGSYLAVLAERGAPGAQLITYPRALWWSVETATTVGYGDLYPVTLWGRLVAVVVMVAGITSFGLVTAALATWFVGREQERRGHFVRHSEKAAEEAYTRTTRALHERFDRLERMLDDNRR
B2: ΔN-KcsA (KcsA lacking the first 18 amino acids, Δ1–18) (domain or fragment, Streptomyces lividans, UniProt P0A334 19-160, looked up)
chain: RHGSALHWRAAGAATVLLVIVLLAGSYLAVLAERGAPGAQLITYPRALWWSVETATTVGYGDLYPVTLWGRLVAVVVMVAGITSFGLVTAALATWFVGREQERRGHFVRHSEKAAEEAYTRTTRALHERFDRLERMLDDNRR

How the values were obtained:
[1] = target: T1, Potassium channel KcsA, wild-type …; test: SDS-PAGE; conditions: remark: other sources report otherwise
SDS-PAGE = target: the molecule itself; test: SDS-PAGE

Binder	stoichiometry N [1]	stoichiometry N (SDS-PAGE)
B1	4	
B2		4
